Measured values published in the nanobody polyreactivity screen of Harvey et al. (2022).

Assay: yeast display, Sf9 membrane polyspecificity reagent, FACS + sequencing; frameworks hold sequencing errors
In short: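 Using colony PCR, genes from sorted yeast display clones were amplified, then sequenced on MiSeq at 2 × 250 and filtered by CDR length. The clones had been stained with 10% biotinylated, detergent-solubilized Sf9 membrane reagent for 1 hour at 4 °C and sorted by FACS into low and high (top ~1%) gates on anti-HA and streptavidin fluorescence. Polyreactivity labels come from the gate of origin.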

| Sequence | polyreactivity (PSR sort gate) |
| --- | --- |
| QVQLQESGGGLVQAGGSLRLSCAASGTIFRFRYMGWHRQAPGTERELVAGINGGTTTYYADSVIGRFTISRDNAKNTVYLQMNSLKPDDTAVYNCAAGASRLTYYDYWGQGTQVTVSS | low polyreactivity |
| QVQLVESGGGLVQAGGSLRLSCAASGRIYRENAMGWYRQAPGKEREFVAVISISDASTYYADSVKGRFTISRDNAKNTVYLQMNSLKPVDTAVYYCAADLTDFLYVSSDFWGQGTQVTVSS | low polyreactivity |
| QVQLVESGGGLVQAGGSLRLSCAASGFIFRTYAMGWYRQAPGTERELVATITGDGSTNYADSVKGRFTISRDNAKNTVYLQMNSLKPEDTAVYYCSRDDRLAGDYWGQGTQVTVSS | low polyreactivity |
| QVQLVESGVGLVQAGGSLRLSCAASGRTFVYAMGWYRQAPGKERELVAAISYNGGSTYYADSVKGRFTISRDNAKNTVYLQMNSLKPEDTAVYYCAADISVGRYGDMDYWGQGTQVTVSS | low polyreactivity |
| QVQLVESGGGLVQAGGSLRLSCAASGFTFTTNAMGWYRQAPGKERELVAAISFSGGTTYYADSVKGRFTISRDNAKNTVYLQMNSLKPEDTAVYYCPAQPGQAWWSTEHDDYWGQGTQVTVSS | low polyreactivity |
| QVQLVESGGGLVQAGGSLRLSCAASGSTFSVNPMGWYRQARVKERELVAAIDSGDSTYYADSVKGRFTISRDNAKNTVYLQMNSLKPEDTAVYYCATDVTFVYDLGYFQYDYWGQGTQVTVSS | low polyreactivity |
| QDQLEESGGGLVQEGGSLRLSCAATGFTLAFNAMGWYRQAPGKERELVASITSSSGSTYYADSVKGRFTISRDNAKITVFLQMNSLKPEDTAVYYCARDLAIPQVLSQPIFGYWGQGTQVTVSS | low polyreactivity |
| QVQLVESGGGLVQAGGSLRLSCAASGRTFGIYAMGWYRQAPGKERELVAAITWSGDSTYYADSVKGRFTISRDNAKNTVYLQMNSLKPEDTAVYYCAADYFGVTSVRYDYWGQGTQVTVSS | low polyreactivity |
| QVQLVESGGGLVQAGGSLRVSSAASGRIFYLYVMAWYRQAPGKERELVAGITGSGGNTYYADSVKGRCTISRDNAKNTVDLQMNSLKPEDTAVYFCNDRFRARPRMGYWGQATQVTVSS | high polyreactivity |
| QVQLVESGGALVQAGGSLRLSCAASGFTFRRYAMGWYRQAPGKERELVAAINKSGGSTYYADSVKGRFTISRDKSKNTVYFQMNSLKPEDTAVYYCAARFSYWKTKRAYDWGQGTQVNVSS | high polyreactivity |
| QVQLVESGGGLVQAGGSLRLSCAASGSIFDFYAMGWYRQAPGKERELVAAISGSGGSTYYADSVKGRFTISRDNAKNTVYLQMNSLKPEDTAVYYCSYYYWGQGTQVTVSS | low polyreactivity |
| QVQLVESGGGLVQAGGSLRLSCAASGSTFAIYAMGWYRQAPGKERELVAAITRGSTSYADSVKGRFTISRDNAKNTVYLQMNCLKPEDTAVYYCAAEYFLAQVYIYGYWGQGTQVTVSS | high polyreactivity |
| QVQLVESGGGLVQAGGSLRLSCAASGLTFHPYAMGWYRQAPGKERELVAAISSRGTSTYYADSVKGRFTISRDNAKNTVYLQMNSLKPEDTAVYYCAARHGPRAESMYYWGQCTQVTVSS | high polyreactivity |
| QVQLVESGGGLVQAGGSLRLSCAASGSTFLYYTMGWYRQAPGKERELVATISRDGSTKYADSVKGRFTISRDNAKITVYLQMNSLKPEDTAVYYCAAARDSIVYGQYDYWGQGTQVTVSS | low polyreactivity |
| QVQLVESGGGLVQAGGSLRLSCAASGSTFAPNAMGWYRQAPGKERELVAGISWGDSTYYADSVKGRFTISRDNAKNTVYLQMNSLKPEDTAVYYCNVDDPFYSGVVEFDYWGQGTQVTVSS | low polyreactivity |
| QVQLVESGGGLVQAGGSLRLSCAASGITFERYAMGWYRQAPGKERELVAAITYRGGSTYYADSVKGRFTISRDNAKNTVYLQMNSLKPEDTAVYYCNRARLRGAYIYWGQGTQVTVSS | high polyreactivity |
